Results as given in IntAct's records for PubMed 22252131.

B1: E3 ubiquitin-protein ligase Hakai (Mus musculus), Q9JIY2 (parent)
chain: MDHTDNELQGTNSSGSLGGLDVRRRIPIKLISKQASKVKPAPRTQRTVSRMPAKAPQGDEEGFDYNEEQRYDCKGGELFGNQRRFPGHLFWDFKINILGEKDDTPVHFCDKCGLPIKVYGRMIPCKHVFCYDCAILHEKKGDKMCPGCSDPVQRIEQCTRGSLFMCSIVQGCKRTYLSQRDLQAHINHRHMRAGKPVTRASLENVHPPIAPPPTDIPDRFIMPPDKHHMSHIPPKQHIMMPPPPLQHVPHEHYNQPHEDIRAPPAELSMAPPPPRSVSQETFRISTRKHSNLITVPIQDDSSSGAREPPPPAPAPAHHHPEYQGQPVVSHPHHIMPPQQHYAPPPPPPPPISHPMPHPPQAAGTPHLVYSQAPPPPMTSAPPPITPPPGHIIAQMPPYMNHPPPGPPPPQHGGPPVTAPPPHHYNPNSLPQFTEDQGTLSPPFTQPGGMSPGIWPAPRGPPPPPRMQGPPSQTPLPGPHHPDQTRYRPYYQ
B2: Cadherin-1 (Homo sapiens), P12830 (parent)
chain: MGPWSRSLSALLLLLQVSSWLCQEPEPCHPGFDAESYTFTVPRRHLERGRVLGRVNFEDCTGRQRTAYFSLDTRFKVGTDGVITVKRPLRFHNPQIHFLVYAWDSTYRKFSTKVTLNTVGHHHRPPPHQASVSGIQAELLTFPNSSPGLRRQKRDWVIPPISCPENEKGPFPKNLVQIKSNKDKEGKVFYSITGQGADTPPVGVFIIERETGWLKVTEPLDRERIATYTLFSHAVSSNGNAVEDPMEILITVTDQNDNKPEFTQEVFKGSVMEGALPGTSVMEVTATDADDDVNTYNAAIAYTILSQDPELPDKNMFTINRNTGVISVVTTGLDRESFPTYTLVVQAADLQGEGLSTTATAVITVTDTNDNPPIFNPTTYKGQVPENEANVVITTLKVTDADAPNTPAWEAVYTILNDDGGQFVVTTNPVNNDGILKTAKGLDFEAKQQYILHVAVTNVVPFEVSLTTSTATVTVDVLDVNEAPIFVPPEKRVEVSEDFGVGQEITSYTAQEPDTFMEQKITYRIWRDTANWLEINPDTGAISTRAELDREDFEHVKNSTYTALIIATDNGSPVATGTGTLLLILSDVNDNAPIPEPRTIFFCERNPKPQVINIIDADLPPNTSPFTAELTHGASANWTIQYNDPTQESIILKPKMALEVGDYKINLKLMDNQNKDQVTTLEVSVCDCEGAAGVCRKAQPVEAGLQIPAILGILGGILALLILILLLLLFLRRRAVVKEPLLPPEDDTRDNVYYYDEEGGGEEDQDFDLSQLHRGLDARPEVTRNDVAPTLMSVPRYLPRPANPDEIGNFIDENLKAADTDPTAPPYDSLLVFDYEGSGSEAASLSSLNSSESDKDQDYDYLNEWGNRFKKLADMYGGGEDD

Variants of: B1
Settings: with cadh1_human CDH1, P12830

Row | effect of a mutation on the interaction | Variant
1 | disrupting interaction | H127A

Variants of: B1
Settings: with src8_human CTTN

Row | effect of a mutation on the interaction | Variant
2 | disrupting interaction | H127A

Variants of: B1
Settings: with cadh1_human CDH1, P12830
Remark: another data set of the same source

Row | effect of a mutation on the interaction | Variant
3 | disrupting interaction | C166A

Variants of: B1
Settings: with src8_human CTTN
Remark: another data set of the same source

Row | effect of a mutation on the interaction | Variant
4 | disrupting interaction | C166A

Variants of: B1
Settings: with cadh1_human CDH1, P12830
Remark: another data set of the same source

Row | effect of a mutation on the interaction | Variant
5 | disrupting interaction | R189A

Variants of: B1
Settings: with src8_human CTTN
Remark: another data set of the same source

Row | effect of a mutation on the interaction | Variant
6 | disrupting interaction | R189A

Variants of: B1
Settings: with cadh1_human CDH1, P12830
Remark: another data set of the same source

Row | effect of a mutation on the interaction | Variant
7 | disrupting interaction | H185A

Variants of: B1
Settings: with src8_human CTTN
Remark: another data set of the same source

Row | effect of a mutation on the interaction | Variant
8 | disrupting interaction | H185A

Variants of: B1
Settings: with cadh1_human CDH1, P12830
Remark: another data set of the same source

Row | effect of a mutation on the interaction | Variant
9 | disrupting interaction | C172A

Variants of: B1
Settings: with src8_human CTTN
Remark: another data set of the same source

Row | effect of a mutation on the interaction | Variant
10 | disrupting interaction | C172A

Variants of: B1
Settings: with cadh1_human CDH1, P12830
Remark: another data set of the same source

Row | effect of a mutation on the interaction | Variant
11 | disrupting interaction | Y176A

Variants of: B1
Settings: with src8_human CTTN
Remark: another data set of the same source

Row | effect of a mutation on the interaction | Variant
12 | disrupting interaction | Y176A

Variants of: B1
Settings: with cadh1_human CDH1, P12830
Remark: another data set of the same source

Row | effect of a mutation on the interaction | Variant
13 | disrupting interaction | H190A

Variants of: B1
Settings: with src8_human CTTN
Remark: another data set of the same source

Row | effect of a mutation on the interaction | Variant
14 | disrupting interaction | H190A

Variants of: B2
Settings: with hakai_mouse Cbll1, Q9JIY2

Row | effect of a mutation on the interaction | Variant
15 | disrupting interaction | D756A

Variants of: B2
Settings: with hakai_mouse Cbll1, Q9JIY2
Remark: another data set of the same source

Row | effect of a mutation on the interaction | Variant
16 | disrupting interaction | Y754F

Variants of: B2
Settings: with hakai_mouse Cbll1, Q9JIY2
Remark: another data set of the same source

Row | effect of a mutation on the interaction | Variant
17 | disrupting interaction | E757A

Variants of: B2
Settings: with hakai_mouse Cbll1, Q9JIY2
Remark: another data set of the same source

Row | effect of a mutation on the interaction | Variant
18 | disrupting interaction | D750A

Variants of: B2
Settings: with hakai_mouse Cbll1, Q9JIY2
Remark: another data set of the same source

Row | effect of a mutation on the interaction | Variant
19 | disrupting interaction | V752A

Variants of: B2
Settings: with hakai_mouse Cbll1, Q9JIY2
Remark: another data set of the same source

Row | effect of a mutation on the interaction | Variant
20 | disrupting interaction | Y753F

Variants of: B2
Settings: with hakai_mouse Cbll1, Q9JIY2
Remark: another data set of the same source

Row | effect of a mutation on the interaction | Variant
21 | disrupting interaction | Y755F
